Data from patent publication US20180155451A1 (published 2018).

Assays:
[1] = molecular target: T1, FcγRIIa R (extracellular domain, C-terminal His tag) (human, UniProt P12318 34-217); test: ratio of He/Con_2aR to He/Con_2b (FcγRIIb); SPR relative binding
T1 construct: extracellular domain; also called FcgRIIa R type; 2aR; not shown: His tag attached to the C terminus
T1 sequence (looked up): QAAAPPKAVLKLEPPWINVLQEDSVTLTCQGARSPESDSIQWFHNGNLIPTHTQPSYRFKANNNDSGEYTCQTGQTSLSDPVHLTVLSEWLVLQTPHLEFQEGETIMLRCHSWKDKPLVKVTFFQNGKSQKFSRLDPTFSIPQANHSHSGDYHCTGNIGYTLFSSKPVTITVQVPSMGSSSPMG
Method: (§1) The heterodimerized antibodies He Abs in which one of the H chains was introduced with an alteration were assayed for their binding activities to each activating FcγR and inhibitory FcγR according to the method described in Example 4. […] The activating FcγRs in FIGS. 26, 27, 28, and 29 are FcγRIa, FcγRIIa (R), FcγRIIa (H), and FcγRIIIa, respectively.
(§2) Analysis of interaction between objective antibody and the FcγR was carried out using Biacore T100 (GE Healthcare). HBS-EP+ (GE Healthcare) was used as the running buffer, and the measurement temperature was set to 25° C. Chips produced by immobilizing the antigen peptide by the amine coupling method to a Series S Sencor Chip CM5 (GE Healthcare), or alternatively, chips produced by allowing preliminarily biotinylated antigen peptides to interact with and immobilize onto a Series S Sensor Chip SA (certified) (GE Healthcare) were used. Antibodies of interest were captured onto an antigen peptide-immobilized chip, and allowed to interact to each FcγR diluted with running buffer. To regenerate and repeatedly use the chip, the antibodies captured on the chip were washed off by reacting 10 mM glycine-HCl, pH 1.5.

[2] = molecular target: T1, FcγRIIa R (extracellular domain, …); test: SPR (Biacore), antibody captured on antigen-peptide chip, FcγR as analyte; relative binding amount
Method: as §1, §2

[3] = molecular target: T2, FcγRIIb (extracellular domain, C-terminal His tag) (human, UniProt P31994 43-217); test: as above
T2 construct: extracellular domain; also called FcgRIIb; 2b; not shown: His tag attached to the C terminus
T2 sequence (looked up): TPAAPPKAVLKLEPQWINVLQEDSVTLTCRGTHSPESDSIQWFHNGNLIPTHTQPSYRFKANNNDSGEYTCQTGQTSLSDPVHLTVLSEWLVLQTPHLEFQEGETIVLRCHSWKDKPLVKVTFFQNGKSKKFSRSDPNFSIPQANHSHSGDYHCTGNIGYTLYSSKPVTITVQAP
Method: as §1, §2

[4] = molecular target: T3, FcγRIa extracellular domain with C-terminal His tag (human, UniProt P12314 16-292); test: SPR (Biacore); ratio of He/Con_1a (FcγRIa) to He/Con_2b (FcγRIIb) of the same antibody
T3 construct: extracellular domain; Soluble receptor expressed in FreeStyle293 cells, used as analyte in Biacore; also called FcgRI; CD64; not shown: His tag at the C terminus

[5] = molecular target: T3, FcγRIa extracellular domain with …; test: SPR (Biacore), antibody captured via antigen peptide, FcγR as analyte; binding relative to GpH7-A5/GpH7-B3/GpL16-k0 = 100
[6] = molecular target: T4, FcγRIIb extracellular domain with C-terminal His tag (human, UniProt P31994 43-217); test: as above
T4 construct: extracellular domain; Soluble receptor expressed in FreeStyle293 cells, used as analyte in Biacore; also called FcgRIIb; CD32B; not shown: His tag at the C terminus
T4 sequence (looked up): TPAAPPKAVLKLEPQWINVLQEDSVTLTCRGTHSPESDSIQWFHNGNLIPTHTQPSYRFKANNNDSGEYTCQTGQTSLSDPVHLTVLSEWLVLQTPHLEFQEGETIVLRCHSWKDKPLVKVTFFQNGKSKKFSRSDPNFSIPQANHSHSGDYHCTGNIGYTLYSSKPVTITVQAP

T3 sequence (P12314 16-292): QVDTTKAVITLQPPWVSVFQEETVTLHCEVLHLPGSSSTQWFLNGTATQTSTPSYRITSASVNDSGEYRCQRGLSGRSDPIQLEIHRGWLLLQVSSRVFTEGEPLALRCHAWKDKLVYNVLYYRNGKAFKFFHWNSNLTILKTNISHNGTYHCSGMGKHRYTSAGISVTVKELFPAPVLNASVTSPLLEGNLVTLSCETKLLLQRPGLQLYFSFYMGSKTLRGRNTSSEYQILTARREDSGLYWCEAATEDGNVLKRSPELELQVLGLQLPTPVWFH

B1: GpH7-A5/GpH7-B3 variant P238_18N/GpL16-k0 (antibody, human IgG1, kappa)
heavy 1: not shown
heavy 2: not shown
light: DIVMTQSPLSLPVTPGEPASISCQASESLVHSNRNTYLHWYLQKPGQSPQLLIYKVSNRFSGVPDRFSGSGSGTDFTLKISRVEAEDVGVYYCSQNTHVPPTFGQGTKVEIERTVAAPSVFIFPPSDEQLKSGTASVVCLLNNFYPREAKVQWKVDNALQSGNSQESVTEQDSKDSTYSLSSTLTLSKADYEKHKVYACEVTHQGLSSPVTKSFNRGEC
notes: Heterodimerized anti-glypican-3 IgG1; alteration in only one H chain (GpH7-B3 side); also called He Ab
- He_2aR/2b (IIaR/IIb) [1]: 1.26
- He/Con_2aR [2]: 91.9 % of control (GpH7-A5/GpH7-B3/GpL16-k0 = 100)
- He/Con_2b [3]: 73.2 % of control (GpH7-A5/GpH7-B3/GpL16-k0 = 100)

B2: GpH7-A5/GpH7-B3 variant P238_13S/GpL16-k0 (antibody, human IgG1, kappa)
heavy 1: not shown
heavy 2: not shown
light: DIVMTQSPLSLPVTPGEPASISCQASESLVHSNRNTYLHWYLQKPGQSPQLLIYKVSNRFSGVPDRFSGSGSGTDFTLKISRVEAEDVGVYYCSQNTHVPPTFGQGTKVEIERTVAAPSVFIFPPSDEQLKSGTASVVCLLNNFYPREAKVQWKVDNALQSGNSQESVTEQDSKDSTYSLSSTLTLSKADYEKHKVYACEVTHQGLSSPVTKSFNRGEC
notes: as for B1
- He_2aR/2b (IIaR/IIb) [1]: 1.26
- He/Con_2aR [2]: 88.9 % of control (GpH7-A5/GpH7-B3/GpL16-k0 = 100)
- He/Con_2b [3]: 70.4 % of control (GpH7-A5/GpH7-B3/GpL16-k0 = 100)

B3: GpH7-A5/GpH7-B3 variant D265_01G/GpL16-k0 (antibody, human IgG1, kappa)
heavy 1: not shown
heavy 2: not shown
light: DIVMTQSPLSLPVTPGEPASISCQASESLVHSNRNTYLHWYLQKPGQSPQLLIYKVSNRFSGVPDRFSGSGSGTDFTLKISRVEAEDVGVYYCSQNTHVPPTFGQGTKVEIERTVAAPSVFIFPPSDEQLKSGTASVVCLLNNFYPREAKVQWKVDNALQSGNSQESVTEQDSKDSTYSLSSTLTLSKADYEKHKVYACEVTHQGLSSPVTKSFNRGEC
notes: as for B1
- He_2aR/2b (IIaR/IIb) [1]: 1.49
- He/Con_2aR [2]: 24.1 % of control (GpH7-A5/GpH7-B3/GpL16-k0 = 100)
- He/Con_2b [3]: 16.1 % of control (GpH7-A5/GpH7-B3/GpL16-k0 = 100)

B4: GpH7-A5/GpH7-B3 variant P238_14T/GpL16-k0 (antibody, human IgG1, kappa)
heavy 1: not shown
heavy 2: not shown
light: DIVMTQSPLSLPVTPGEPASISCQASESLVHSNRNTYLHWYLQKPGQSPQLLIYKVSNRFSGVPDRFSGSGSGTDFTLKISRVEAEDVGVYYCSQNTHVPPTFGQGTKVEIERTVAAPSVFIFPPSDEQLKSGTASVVCLLNNFYPREAKVQWKVDNALQSGNSQESVTEQDSKDSTYSLSSTLTLSKADYEKHKVYACEVTHQGLSSPVTKSFNRGEC
notes: as for B1
- He_2aR/2b (IIaR/IIb) [1]: 1.44
- He/Con_2aR [2]: 73.1 % of control (GpH7-A5/GpH7-B3/GpL16-k0 = 100)
- He/Con_2b [3]: 50.7 % of control (GpH7-A5/GpH7-B3/GpL16-k0 = 100)

B5: GpH7-A5/GpH7-B3 variant D265_06M/GpL16-k0 (antibody, human IgG1, kappa)
heavy 1: not shown
heavy 2: not shown
light: DIVMTQSPLSLPVTPGEPASISCQASESLVHSNRNTYLHWYLQKPGQSPQLLIYKVSNRFSGVPDRFSGSGSGTDFTLKISRVEAEDVGVYYCSQNTHVPPTFGQGTKVEIERTVAAPSVFIFPPSDEQLKSGTASVVCLLNNFYPREAKVQWKVDNALQSGNSQESVTEQDSKDSTYSLSSTLTLSKADYEKHKVYACEVTHQGLSSPVTKSFNRGEC
notes: as for B1
- He_2aR/2b (IIaR/IIb) [1]: 1.58
- He/Con_2aR [2]: 15.8 % of control (GpH7-A5/GpH7-B3/GpL16-k0 = 100)
- He/Con_2b [3]: 10 % of control (GpH7-A5/GpH7-B3/GpL16-k0 = 100)

B6: GpH7-A5/GpH7-B3 variant D265_08L/GpL16-k0 (antibody, human IgG1, kappa)
heavy 1: not shown
heavy 2: not shown
light: DIVMTQSPLSLPVTPGEPASISCQASESLVHSNRNTYLHWYLQKPGQSPQLLIYKVSNRFSGVPDRFSGSGSGTDFTLKISRVEAEDVGVYYCSQNTHVPPTFGQGTKVEIERTVAAPSVFIFPPSDEQLKSGTASVVCLLNNFYPREAKVQWKVDNALQSGNSQESVTEQDSKDSTYSLSSTLTLSKADYEKHKVYACEVTHQGLSSPVTKSFNRGEC
notes: as for B1
- He_2aR/2b (IIaR/IIb) [1]: 1.46
- He/Con_2aR [2]: 6.6 % of control (GpH7-A5/GpH7-B3/GpL16-k0 = 100)
- He/Con_2b [3]: 4.6 % of control (GpH7-A5/GpH7-B3/GpL16-k0 = 100)

B7: GpH7-A5/GpH7-B3 variant S239_15Y/GpL16-k0 (antibody, human IgG1, kappa)
heavy 1: not shown
heavy 2: not shown
light: DIVMTQSPLSLPVTPGEPASISCQASESLVHSNRNTYLHWYLQKPGQSPQLLIYKVSNRFSGVPDRFSGSGSGTDFTLKISRVEAEDVGVYYCSQNTHVPPTFGQGTKVEIERTVAAPSVFIFPPSDEQLKSGTASVVCLLNNFYPREAKVQWKVDNALQSGNSQESVTEQDSKDSTYSLSSTLTLSKADYEKHKVYACEVTHQGLSSPVTKSFNRGEC
notes: Heterodimerized anti-glypican-3 IgG1; substitution in only one H chain; also called S239Y; He Ab
- Ia/IIb He_1a/2b [4]: 2.57
- He/Con_1a [5]: 89.8 % of control (GpH7-A5/GpH7-B3/GpL16-k0 = 100)
- He/Con_2b [6]: 34.9 % of control (GpH7-A5/GpH7-B3/GpL16-k0 = 100)

B8: GpH7-A5/GpH7-B3 variant S239_16H/GpL16-k0 (antibody, human IgG1, kappa)
heavy 1: not shown
heavy 2: not shown
light: DIVMTQSPLSLPVTPGEPASISCQASESLVHSNRNTYLHWYLQKPGQSPQLLIYKVSNRFSGVPDRFSGSGSGTDFTLKISRVEAEDVGVYYCSQNTHVPPTFGQGTKVEIERTVAAPSVFIFPPSDEQLKSGTASVVCLLNNFYPREAKVQWKVDNALQSGNSQESVTEQDSKDSTYSLSSTLTLSKADYEKHKVYACEVTHQGLSSPVTKSFNRGEC
notes: Heterodimerized anti-glypican-3 IgG1; substitution in only one H chain; also called S239H; He Ab
- Ia/IIb He_1a/2b [4]: 1.78
- He/Con_1a [5]: 88.1 % of control (GpH7-A5/GpH7-B3/GpL16-k0 = 100)
- He/Con_2b [6]: 49.4 % of control (GpH7-A5/GpH7-B3/GpL16-k0 = 100)
